Key:
[1] = target: T1, RSV F protein on Hep2 cells infected with RSV-A2 (immunofluorescent assay) (respiratory syncytial virus A2 strain, UniProt P03420 26-574); test: immunofluorescence on RSV-A2-infected Hep2 cells, confocal microscopy
T1 construct: whole, on cells

[2] = target: T2, post-F protein (RSV-A2 F protein with P102A, I379V, M447V and fusion peptide positions 137-146 removed, … (respiratory syncytial virus, RSV-A2, UniProt P03420 26-524)); test: hybridoma screening, RSV-post F enzyme-linked immunosorbent assay
T2 construct: Signal peptide, furin processing and the residue of the HRV 3C site left after cleavage are not described; also called RSV-post F; post-fusion F

[3] = target: T3, RSV F protein in RSV-A2 virus preparation (Western Blot sample) (respiratory syncytial virus A2 strain, UniProt P03420 26-574); test: Western Blot, non-boiled sample
T3 construct: Loaded boiled (denatured) or non-boiled (non-denatured); also called RSV A2 strain

B1: monoclonal antibody 5C4 (antibody, V domains shown)
VH: EVQLQQSGAELVKPGASVKLSCTASGFNIKDTFFHWVKQRPEQGLEWIGRIDPADGHTKYDPKFQGKATITADTSSNTAFLQLSSLTSEDTAVYYCATTITAVVPTPYNAMDYWGQGTSVTVSS
VL: DIVLTQSPASLAVSLGQRTTISCRASESVDSFDNSFIHWYQQKPGQPPKLLIFLASSLESGVPARFSGSGSRTDFTLTIDPVEADDAATYYCQQSNEDPFTFGSGTKLEIKR
notes: Mouse hybridoma antibody purified from ascites; kappa light chain; also called 5C4 monoclonal antibody; 5C4 antibody
Question: Does B1 bind [1]?
Answer: binds

Question: Does B1 bind [2]?
Answer: no binding

Question: Does B1 bind [3]?
Answer: binds
